Like-named read-outs stand apart in the source and are kept apart here.
Experiments:
[1] = target: HIV-1 BH10 GagΔp6 (HIV-1 BH10); assay: native MS
[2] = target: HIV-1 BH10 GagΔp6 (HIV-1 BH10); assay: native MS; remark: listed apart in the source
[3] = target: WT HIV-1 BH10 Gag (HIV-1 BH10); assay: native MS
[4] = target: WT HIV-1 BH10 Gag (HIV-1 BH10); assay: native MS; remark: listed apart in the source
WT Gag [5] = target: T1, WT Gag (HIV-1 BH10, UniProt P03347 1-512); assay: fluorescence anisotropy salt titration
WT Gag [6] = target: T1, WT Gag; assay: native MS

## HIV-1 BH10 GagΔp6 (domain or fragment)
[1]
  stoichiometry N: 2
[2]
  stoichiometry N: 2

## WT HIV-1 BH10 Gag (natural protein)
[3]
  stoichiometry N: 2
[4]
  stoichiometry N: 2

B1: Psi RNA-FTSC (structured_RNA)
RNA: GGUCUCUCGACGCAGGACUCGGCUUGCUGGAGACGGCAAGAGGCGAGGGGCGGCGACUGGUGAGUACGCCAAAAAUUUUGACUAGCGGAGGCUAGAAGGAGAGA
WT Gag [5]
  Kd: 77 µM

B2: TARpolyA RNA (structured_RNA)
RNA: GGGUCUCUCUGGUUAGACCAGAUCUGAGCCUGGGAGCUCUCUGGCUAACUAGGGAACCCACUGCUUAAGCCUCAAUAAAGCUUGCCUUGAGUGCUCAAAGUAGUG
WT Gag [6]
  binding result: binds
